The target of assay [1] is human AmphiphysinII/Bin1 N-BAR domain (human). Description: stopped-flow refolding kinetics, single mixing (fluorescence); unfolded in 4 M urea, refolding by 11-fold dilution to 0.4 M urea, 0.1 to 5 μM N-BAR, 20 mM Na phosphate, 100 mM NaCl, pH 7.4, 15°C; step: two monomeric intermediates I to dimeric intermediate I2; λ2 fixed to the value from fluorescence anisotropy.
Assay [2] has the same target. Description: double-mixing stopped-flow N assay (fluorescence); unfolded in 4 M urea, refolding at 1 to 5 μM N-BAR in 0.66 M urea for 0.1 to 300 s, then unfolding in 4.5 M urea; λ2 from the amplitudes of the fast unfolding phase λ5; 15°C; step: monomers to dimeric intermediate I2.

“human AmphiphysinII/Bin1 N-BAR domain (domain or fragment)” came in with a λ2, second-order rate constant of the dimerization step at 0.4 M urea in assay [1] of 620000 M⁻¹ s⁻¹. Also, in assay [2], the λ2, second-order rate constant of the dimerization step at 0.66 M urea, 1 μM N-BAR came to 260000 M⁻¹ s⁻¹; the λ2, second-order rate constant of the dimerization step at 0.66 M urea, 2 μM N-BAR is 480000 M⁻¹ s⁻¹; the λ2, second-order rate constant of the dimerization step at 0.66 M urea, 5 μM N-BAR worked out at 430000 M⁻¹ s⁻¹.
